Target: His5-MttP (MM_1691), DME family transporter of Methanosarcina mazei (Methanosarcina mazei)
Test: SEC

Substance | stoichiometry N
MttQ (MM_1692), small protein of Methanosarcina mazei (natural protein) | 1
MttS (sORF05), small protein of Methanosarcina mazei (natural protein) | 1
